Measurements published in patent publication US20140154241A1 (CYCLOGENIX, published 2014).

Biological target: T1, human serum albumin (HSA) (human, UniProt P02768 25-609)
T1 construct: Coated on ELISA plates or immunotubes; also called HuSA
Assay: phage ELISA on coated HSA

T1 sequence (P02768 25-609 limits assumed): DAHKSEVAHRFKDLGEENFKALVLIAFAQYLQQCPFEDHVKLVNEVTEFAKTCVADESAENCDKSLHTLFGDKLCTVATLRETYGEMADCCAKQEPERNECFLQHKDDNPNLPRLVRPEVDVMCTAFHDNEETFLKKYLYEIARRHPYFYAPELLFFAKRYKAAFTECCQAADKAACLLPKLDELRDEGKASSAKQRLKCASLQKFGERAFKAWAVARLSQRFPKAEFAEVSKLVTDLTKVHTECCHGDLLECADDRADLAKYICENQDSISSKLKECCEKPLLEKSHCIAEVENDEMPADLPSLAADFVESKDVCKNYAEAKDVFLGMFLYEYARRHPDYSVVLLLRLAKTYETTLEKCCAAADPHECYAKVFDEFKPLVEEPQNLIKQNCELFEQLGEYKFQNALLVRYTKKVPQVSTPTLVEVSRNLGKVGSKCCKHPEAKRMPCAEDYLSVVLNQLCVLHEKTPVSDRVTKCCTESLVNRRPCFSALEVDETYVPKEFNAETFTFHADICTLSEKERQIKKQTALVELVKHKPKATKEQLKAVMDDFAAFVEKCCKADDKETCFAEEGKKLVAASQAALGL

Binder	binding result
modified igNAR peptide clone B10 (VNAR) VNAR: RVDQTPRIATKETGESLTINCVLRDTACALDSTNWYRTKLGSTKEQTISIGGRYSETADEGSNPASLTIRDLRVEDSGTYKCKAAITPFDNWYECLGTRAEGAGTVLTVK	binds
representative full igNAR clone of SEQ ID NO: 8 (VNAR) VNAR: RVDQTPRIATKETGESLTINCVLRDTACALDSTNWYRTKLGSTKEQTISIGGRYSETVDEGSNSASLTIRDLRVEDSGTYKCKAAITPFDNWYECLGTRAEGAGTVLTVK	binds
